No end group written: not given here.
Tests used:
GC-C in T84 cells = target: T1, GC-C in T84 cells (Homo sapiens, UniProt P25092); test: Cyclic GMP accumulation in T84 cells; type: cell-based; conditions: for bioactivity of purified urine peaks in T84 cell cyclic GMP bioassay: peptides purified from human urine, microbore HPLC C8
T1 construct: host or cells: T84 human colon carcinoma cells
Description: (§1) FIG. 3(a) and (b). FIG. 3(a) Concentration-response effect of synthetic human uroguanylin, human guanylin and E. coli ST5-18 (STa) on cyclic GMP levels in T84 cells. The cells were incubated with various concentrations of ligands for 30 min. Values represent mean±SE (n=4). FIG. 3(b) Displacement of ^125 I-STa specific binding from T84 cells by human uroguanylin, human guanylin and STa. Cells were incubated for 30 min at 37° C. with labeled STa and indicated concentrations of ligands. Specific binding (%) was determined by dividing the specifically bound ^125 I-STa at each ligand concentration by the specifically bound ^125 I-STa in the absence of ligands. Each determination represents the mean of four wells examined.
Cell Culture. A cultured human colon carcinoma cell line (T84) was obtained from the American Type Culture Collection (Rockville, Maryland) (ATCC No. CCL 248) at passage 52. Cells were grown to confluency in 24-well culture plates with a 1:1 mixture of Ham's F12 medium and Dulbecco's modified Eagle's medium (DMEM), supplemented with 10% fetal calf serum, 100 IU/ml penicillin, and 100 μg/ml streptomycin. Cells were used at passages 54-60.
Cyclic GMP determination. Monolayers of T84 cells in 24-well plates were washed twice with 1 ml/well DMEM, then incubated at 37° C. for 10 min with 0.5 ml DMEM containing 1 mM isobutylmethylxanthine, a phosphodiesterase inhibitor. Agents and fractions were then added for the indicated time as described in the results section, below. The media was then aspirated and the reaction terminated by the addition of ice cold 0.5 ml of 0.1N HC1. Aliquots were then evaporated to dryness under nitrogen and then resuspended in 5 mM sodium acetate buffer, pH 6.4. The samples were then measured for cyclic GMP by conventional RIA as described by Steiner et al. (13).

rat proximal colon = test: Short-circuit current (Isc) in rat proximal colon, Ussing chamber; conditions: 0.2 μM, mucosal addition
Description: FIG. 4. Effect of synthetic human uroguanylin on short-circuit current (Isc) of rat colon. Effect of human uroguanylin (0.2 μM) on Isc across rat proximal colon after a mucosal addition. The response is characteristic of results from 3 other experiments.
Measurement of Short-Circuit Current (ISc) in Rat Colon. Rat proximal colon tissue, consisting of only mucosa and submucosa, was mounted between two Ussing half-chambers and bathed on both sides similar to previously reported (3). Electrical measurements were monitored with an automatic voltage clamp, and direct connecting voltage-and current-passing electrodes were used to measure trans epithelial potential difference and Isc. Tissues were equilibrated under short-circuit conditions until Isc had stabilized.

receptors on T84 cells = target: T2, receptors on T84 cells (Homo sapiens, UniProt P25092); test: 125I-ST radioligand competitive binding assay on T84 cells; conditions: 30 min at 37° C., pH 5.5
T2 construct: host or cells: T84 human colon carcinoma cells
Description: as §1
Radioligand Binding Assay. ^125 I-labeled ST5-18 (^125 I-ST) was prepared by the Iodo-Gen method as previously described (3). T84 cell monolayers were washed two times with 1.0 ml per well of ice-cold binding assay buffer (Earle's medium containing 25 mM 2[N-Morpholino]ethanesulfonic acid (MES), pH 5.5). The cells were incubated for 30 min at 37° C. in 0.5 ml per well of binding assay buffer with ^125 I-ST (100,000 cpm per well) and unlabeled peptides. […] This volume was transferred to tubes and assayed for radioactivity by a multigamma counter. Results are expressed as the percentage specifically bound.

T1 sequence (P25092 24-1073): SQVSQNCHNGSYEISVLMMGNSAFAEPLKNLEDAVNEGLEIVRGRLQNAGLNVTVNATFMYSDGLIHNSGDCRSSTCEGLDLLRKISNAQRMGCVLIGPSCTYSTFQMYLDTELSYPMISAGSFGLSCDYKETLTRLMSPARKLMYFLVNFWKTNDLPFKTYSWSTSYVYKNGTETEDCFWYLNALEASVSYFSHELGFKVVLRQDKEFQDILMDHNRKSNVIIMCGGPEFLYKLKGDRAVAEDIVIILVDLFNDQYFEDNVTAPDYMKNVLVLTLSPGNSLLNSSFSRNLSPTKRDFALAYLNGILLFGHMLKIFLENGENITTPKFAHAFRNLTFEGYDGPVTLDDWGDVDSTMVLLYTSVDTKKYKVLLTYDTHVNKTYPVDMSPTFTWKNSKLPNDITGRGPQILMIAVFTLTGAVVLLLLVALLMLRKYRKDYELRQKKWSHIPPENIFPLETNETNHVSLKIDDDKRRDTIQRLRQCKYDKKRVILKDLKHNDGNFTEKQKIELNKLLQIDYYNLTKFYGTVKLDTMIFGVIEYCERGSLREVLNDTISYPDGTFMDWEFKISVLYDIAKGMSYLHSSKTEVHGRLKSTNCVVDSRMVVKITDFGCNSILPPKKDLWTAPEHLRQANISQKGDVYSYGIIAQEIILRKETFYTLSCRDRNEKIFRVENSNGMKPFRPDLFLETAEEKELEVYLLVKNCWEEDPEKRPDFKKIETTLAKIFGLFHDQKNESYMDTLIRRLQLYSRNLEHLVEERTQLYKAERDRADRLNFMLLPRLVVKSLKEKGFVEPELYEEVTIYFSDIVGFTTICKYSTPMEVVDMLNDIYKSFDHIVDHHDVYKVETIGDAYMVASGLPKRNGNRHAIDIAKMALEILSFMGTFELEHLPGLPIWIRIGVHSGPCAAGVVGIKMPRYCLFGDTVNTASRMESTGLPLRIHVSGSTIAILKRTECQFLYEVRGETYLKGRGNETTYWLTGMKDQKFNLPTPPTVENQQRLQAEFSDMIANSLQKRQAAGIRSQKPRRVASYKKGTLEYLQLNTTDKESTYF
T2 sequence (P25092 24-1073): as above

Substance | bioactivity of purified urine peaks in T84 cell cyclic GMP bioassay (GC-C in T84 cells) | effect on T84 cell cyclic GMP levels (GC-C in T84 cells; T84 cells, 30 min incubation with ligand, 1 mM isobutylmethylxanthine) | relative potency for activation of GC-C in T84 cells (GC-C in T84 cells; T84 cells, cyclic GMP, concentration-response) | effect on short-circuit current (Isc) of rat proximal colon (rat proximal colon) | relative affinity, displacement of 125I-ST5-18 specific binding from T84 cells (receptors on T84 cells)
DDCELCVNVACTGCL [peak 2, peptide from human urine lacking the N-terminal asparagine, likely a degradation product of peak 1] | bioactive | – | – | – | –
NDDCELCVNVACTGCL [human uroguanylin, sedecapeptide, endogenous regulator of intestinal guanylate cyclase, isolated from human urine and chemically synthesized] | bioactive | concentration-dependent increase | more potent than human guanylin, but less potent than ST | sustained rise in Isc | –
human guanylin: first known endogenous activator of intestinal guanylate cyclase (PGTCEICAYAACTGC; ends and bridges not checked; cysteine pairing not given here; UniProt Q02747 101-115, looked up) | – | – | – | – | much lower affinity

Reference: patent US5489670A, “Human uroguanylin” (G. D. Searle & Co., priority 1993, dated 1996)
